Source: the supplement of paper PMC6757056
± gives the standard deviation of the averaged measurements.

B1: library; a variant is named by its letters at N, in order (parent)
chain: GCUGUCACCGGUGCUUGGUACGUUAUAUUCAGCCGGUCUGAUGAGUCUNNNNNNAGACGAAACAGC

What was measured:
(6R,S)-folinic acid [1] = variants of: B1; assay: normalized RNA/DNA level without ligand (relative to sTRSVctl = 100) (log10 (% of sTRSVctl)); HEK293T overexpressing SLC46A1; higher = less ribozyme self-cleavage, higher mRNA level; conditions: without (6R,S)-folinic acid; ligand present: no
Procedure, shortened: (§1)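 Ribozyme switch library plasmids with mCherry reporters (eGFP in certain ligand experiments) went into HEK293T cells at 4 µg per 6-well well. Where ligand was used, it was applied 1 h before transfection, and total RNA was extracted with EDTA 72 h later for reverse transcription, amplification, barcoding and sequencing. RNA level is the RNA-to-DNA read ratio normalized to a spiked-in non-cleaving sequence or to the leading sequences, then scaled and log-transformed. Scaling was ×100 with log10, the leading set comprised 25 sequences, and the cutoff was ≥100 DNA reads.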

(6R,S)-folinic acid [2] = variants of: B1; assay: normalized RNA/DNA level with ligand (relative to sTRSVctl = 100) (log10 (% of sTRSVctl)); HEK293T overexpressing SLC46A1; ligand concentration (+) RNA-Seq: 6 mM; higher = less ribozyme self-cleavage, higher mRNA level; conditions: with (6R,S)-folinic acid; ligand present: yes
Procedure, shortened: as §1

Variant | normalized RNA/DNA level without ligand (log10) ((6R,S)-folinic acid [1]) | normalized RNA/DNA level with ligand (log10) ((6R,S)-folinic acid [2])
GGUAGA | 1.995 ± 0.01 | 2.01 ± 0.022
GGUAGG | 1.933 ± 0.013 | 1.99 ± 0.042
GGUAGC | 1.923 ± 0.015 | 2.017 ± 0.013
AGGACU | 1.993 ± 0.0073 | 2.009 ± 0.017
AGGACG | 1.962 ± 0.0089 | 2.032 ± 0.014
AGGACC | 2.029 ± 0.0033 | 1.99 ± 0.043
AGGACA | 1.989 ± 0.0041 | 2.02 ± 0.038
CGGCCU | 2.0767 ± 0.00028 | 2.06 ± 0.068
CGGCCC | 2.09 ± 0.035 | 2.04 ± 0.032
CGGCCG | 2.038 ± 0.015 | 2.03 ± 0.038
CGGCCA | 2.111 ± 0.021 | 2.058 ± 0.0046
AGGUCG | 1.985 ± 0.013 | 2.05 ± 0.043
AGGUCA | 1.967 ± 0.014 | 2.01 ± 0.047
AGGUCU | 2.043 ± 0.0045 | 2 ± 0.021
CGGGUC | 2.078 ± 0.0029 | 2.06 ± 0.038
CGGGUG | 1.976 ± 0.0081 | 2.01 ± 0.047
CGGGUU | 2 ± 0.024 | 2 ± 0.051
CGUACU | 2.0544 ± 0.00062 | 2.043 ± 0.0063
CGUACC | 2.1 ± 0.0079 | 2.021 ± 0.016

Variant | normalized RNA/DNA level without ligand (log10) ((6R,S)-folinic acid [1]) | normalized RNA/DNA level with ligand (log10) ((6R,S)-folinic acid [2])
CGUACG | 2.018 ± 0.011 | 2.0285 ± 0.0013
CGUACA | 2.01 ± 0.0077 | 2.041 ± 0.02
CGGUCC | 2.066 ± 0.013 | 2.03 ± 0.033
CGGUCU | 2.1 ± 0.035 | 2.05 ± 0.049
CGGUCA | 2.005 ± 0.014 | 1.98 ± 0.064
CGGUCG | 2.042 ± 0.0075 | 2.04 ± 0.021
GGGAUC | 2.037 ± 0.0086 | 2.04 ± 0.027
GGGAUU | 2.0271 ± 0.0004 | 2.04 ± 0.047
GGGAUA | 2 ± 0.028 | 2.03 ± 0.022
GGGCUG | 2.044 ± 0.0043 | 2.03 ± 0.046
GGGCUC | 2.1006 ± 0.0021 | 2.1 ± 0.021
GGGCUU | 2.143 ± 0.0064 | 2.1 ± 0.027
GGGCUA | 2.048 ± 0.0023 | 2.05 ± 0.033
UGGCCU | 2.043 ± 0.014 | 2.03 ± 0.024
UGGCCC | 2.059 ± 0.0063 | 2.06 ± 0.068
UGGCCG | 2.01 ± 0.036 | 2.03 ± 0.046
GGGUUA | 2.052 ± 0.0032 | 2.034 ± 0.01
GGGUUU | 2.029 ± 0.015 | 2.04 ± 0.036
GGGUUC | 2.027 ± 0.006 | 2.001 ± 0.0053

Variant | normalized RNA/DNA level without ligand (log10) ((6R,S)-folinic acid [1]) | normalized RNA/DNA level with ligand (log10) ((6R,S)-folinic acid [2])
GGUAAC | 1.99 ± 0.041 | 2.005 ± 0.012
UGGGAA | 1.8778 ± 0.0006 | 1.98 ± 0.028
UGGGAC | 1.99 ± 0.03 | 2.015 ± 0.0073
CGGUUC | 2.02 ± 0.0095 | 2.01 ± 0.07
CGGUUG | 2.026 ± 0.02 | 2 ± 0.065
CGGUUU | 2.033 ± 0.017 | 2.056 ± 0.012
CGGCGA | 2.103 ± 0.016 | 2.09 ± 0.026
CGGCGG | 1.968 ± 0.0051 | 2.04 ± 0.041
CGGCGC | 2.0778 ± 0.0006 | 2.05 ± 0.029
CGGCGU | 2.05 ± 0.027 | 2.02 ± 0.046
CGGCUU | 2.04 ± 0.04 | 2.02 ± 0.022
CGGCUA | 2.11 ± 0.027 | 2.067 ± 0.011
CGGCUG | 2.0746 ± 0.002 | 2.04 ± 0.027
UGGCAC | 2.041 ± 0.016 | 2.04 ± 0.042
UGGCAA | 1.97 ± 0.024 | 2.01 ± 0.033
UGGCAU | 1.965 ± 0.014 | 2.01 ± 0.021
GGGCGC | 2.011 ± 0.016 | 2.04 ± 0.048
GGGCGA | 2.089 ± 0.0043 | 2.1 ± 0.018
GGGCGU | 2.103 ± 0.0047 | 2.08 ± 0.05
